Measurements as given in PMC12136792, “ADP ribosylation factor–like GTPase 6–interacting protein 5 (Arl6IP5) is an ER membrane-shaping protein that modulates ER-phagy” (The Journal of Biological Chemistry, 2025).

Target: the molecule itself
Experiment: SDS-PAGE and immunoblot without cross-linker (SDS-resistant dimer); same membrane fraction of COS-7 cells transfected with HA-Arl6IP5, without BS3; anti-HA immunoblot

B1: HA-tagged Arl6IP5 (ADP ribosylation factor-like GTPase 6-interacting protein 5) (natural protein, human, UniProt O75915 1-188, looked up)
chain: MDVNIAPLRAWDDFFPGSDRFARPDFRDISKWNNRVVSNLLYYQTNYLVVAAMMISIVGFLSPFNMILGGIVVVLVFTGFVWAAHNKDVLRRMKKRYPTTFVMVVMLASYFLISMFGGVMVFVFGITFPLLLMFIHASLRLRNLKNKLENKMEGIGLKRTPMGIVLDALEQQEEGINRLTDYISKVKE
notes: Arl6IP5, human, cDNA in pCMV vector with N-terminal HA tag; ER membrane protein; tested in the membrane fraction, not solubilised; also called HA-Arl6IP5; PRAF3; source: COS-7, transfected (PEI), crude membrane fraction; not shown: HA, N-terminal, kept
stoichiometry N: 2
